The results in this text go back to patent US20210032308A1 (published 2021).

In one experiment the target is ML1d1-Pfe. The experiment is described as follows: SPR.
A further experiment addresses ML3d1-Pfe. The experiment is described as follows: SPR.

B1: CD2 (receptor)
chain: KEITNALETWGALGQDINLDIPSFQMSDDIDDIKWEKTSDKKKIAQFRKEKETFKEKDTYKLFKNGTLKIKHLKTDDQDIYKVSIYDTKGKNVLEKIFDLKIQERVSKPKISWTCINTTLTCEVMNGTDPELNLYQDGKHLKLSQRVITHKWTTSLSAKFKCTAGNKVSKESSVEPVSCPEKGLD
modifications: biotinylated (site not stated)
As for B1, the Kd in the experiment with ML1d1-Pfe is 82 nM; with ML3d1-Pfe it was 52 nM.
